Laboratory results from patent US11155586B2, “Cystine knot scaffold platform” (Genentech, Inc., priority 2015, dated 2021).
Positions of bridges follow the written chain, without caps; N, C: chain ends. Non-standard residues stand in square brackets, D forms with d. Residues, ends and D or L forms follow the SMILES beside them. 1Nal = N[C@@H](Cc1cccc2ccccc12)C(=O)O; 2Nal = N[C@@H](Cc1ccc2ccccc2c1)C(=O)O

Assays:
[1] = target: T1, hVEGF-A (8-109) (Homo sapiens, UniProt P15692); assay: Phage competition ELISA; format: binding; details: phage competition ELISA, FIG. 15
T1 sequence (P15692 214-315): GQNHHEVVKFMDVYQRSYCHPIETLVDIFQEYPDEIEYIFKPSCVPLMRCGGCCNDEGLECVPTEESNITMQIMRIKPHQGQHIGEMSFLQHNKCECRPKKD

[2] = target: T2, hVEGF-A (Homo sapiens, UniProt P15692); assay: KDR-CHO VEGF assay to determine cellular IC50 (VEGF mediated Tyr phosphorylation of KDR); format: cell-based
T2 sequence (P15692 207-395): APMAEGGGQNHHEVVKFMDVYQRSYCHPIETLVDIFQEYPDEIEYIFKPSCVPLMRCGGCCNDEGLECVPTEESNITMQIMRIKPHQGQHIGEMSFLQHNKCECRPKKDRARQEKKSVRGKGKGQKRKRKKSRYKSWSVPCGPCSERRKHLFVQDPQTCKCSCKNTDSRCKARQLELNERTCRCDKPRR
Procedure: KDR-CHO cells (CHO cells stably transfected with gD tagged-KDR) were grown in cell growth medium (DMEM/Ham's F-12, 10% diafiltered FBS (GIBCO catalog no. 26400), 25 mM HEPES, 2 mM L-GLUTAMAX™). For VEGF stimulation assay, 5×10^4 cells/well were plated in 100 μl of cell plating medium (DMEM/Ham's F-12, 0.2% BSA, 0.25% diafiltered FBS, 25 mM HEPES, 2 mM L-GLUTAMAX™) in 96-well tissue culture plate and incubated at 37° C. overnight. The medium was replaced with 100 I1 of serum-free cell stimulation medium (DMEM/Ham's F-12, 0.5% BSA, 25 mM HEPES) and cells were incubated at 37° C. for 2 hr. One hour before stimulation, the medium was replaced with 50 I1 of serum-free cell stimulation medium. Concurrently, VEGF (50 ng/ml for hVEGF, 100 ng/ml for mVEGF and rVEGF) was pre-incubated with titrated amount of CKP or anti-VEGF in 50 μl of serum-free cell stimulation medium at 37° C. for 1 hour and added to the cells. The cells were stimulated for 15 min at 37 C and the medium is removed. The cells were lysed with 130 I1 of ice-cold cell lysis buffer (150 mM NaCl, 50 mM HEPES, 0.5% Triton-X 100, HALT protease and phosphatase inhibitor cocktail (ThermoFisher Scientific, Inc. catalog no. 78444), 5 mM EDTA). VEGF mediated Tyr phosphorylation of KDR was determined by ELISA-based assay. Briefly, MAXISORP™ 96 well plates (ThermoFisher Scientific, Inc. catalog no. 439454) were coated with 100 I1 of anti-gD antibody diluted in PBS (1 μg/ml) at 4° C. overnight and washed three times with washing buffer (PBS, 0.05% TWEEN®20, pH 7.4). The plates were blocked with 300 I1 of blocking buffer (PBS, 0.5% BSA) at room temperature for 1 hour followed by washing three times with washing buffer. The above KDR-CHO cell lysate (100 μl) was added to each well and incubated at room temperature for 2 hours. The plates were washed four times with washing buffer followed by incubation with 100 I1 of 0.5 μg/ml biotin-conjugated anti-phosphotyrosine (clone 4G10, Millipore catalog no. 16-103) in blocking buffer at room temperature for 2 hours. After washing four times, the plates were incubated with 100 I1 of HRP-conjugated streptavidin in blocking buffer at room temperature for 30 min. After washing four times, the plates were developed with 100 I1 of TMB substrate (BD Biosciences) at room temperature for 20-30 min and stopped by addition of 50 μl of H2SO4 solution. The optical density of each well was determined using a microplate reader set to 450 nm.

[3] = target: T3, LRP6 E1E2 (Homo sapiens, UniProt O75581); assay: Phage selection / spot phage ELISA against LRP6 E1E2; format: binding
T3 sequence (O75581 20-630 limits assumed): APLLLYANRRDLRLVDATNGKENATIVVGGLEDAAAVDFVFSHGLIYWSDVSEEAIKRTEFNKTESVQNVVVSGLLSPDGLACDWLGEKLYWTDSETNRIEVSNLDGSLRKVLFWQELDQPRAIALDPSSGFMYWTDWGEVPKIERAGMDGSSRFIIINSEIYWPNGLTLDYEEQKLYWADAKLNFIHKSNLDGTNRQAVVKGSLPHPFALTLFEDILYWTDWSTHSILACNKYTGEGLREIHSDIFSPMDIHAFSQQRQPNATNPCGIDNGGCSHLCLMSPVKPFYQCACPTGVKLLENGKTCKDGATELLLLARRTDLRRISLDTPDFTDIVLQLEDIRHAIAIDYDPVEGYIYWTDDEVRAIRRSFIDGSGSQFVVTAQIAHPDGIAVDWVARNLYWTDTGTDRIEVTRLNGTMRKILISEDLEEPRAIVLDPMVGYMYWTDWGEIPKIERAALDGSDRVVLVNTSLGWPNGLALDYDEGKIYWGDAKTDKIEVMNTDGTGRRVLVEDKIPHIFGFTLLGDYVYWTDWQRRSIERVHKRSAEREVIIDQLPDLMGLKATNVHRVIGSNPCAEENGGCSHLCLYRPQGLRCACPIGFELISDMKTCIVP
Procedure: After four rounds of binding selection, individual phage clones were picked and inoculated into 450 μl 2YT media containing 50 µg/ml Carbenecillin and M13-KO7 helper phage in 96-well blocks, which were grown at 37° C. overnight. The supernatant was analyzed with spot phage ELISA as follows: hVEGF(8-109) or BSA were coated on 384-well MAXISORP™ immunoplates and phage supernatant diluted (1:3) with PBT buffer was added to the wells. The plates were washed and bound phage was detected with anti-M13-HRP followed by TMB substrate. In these assays, phage binding to BSA alone was tested in parallel to assess background binding. Clones whose binding signals for hVEGF-A (8-109) were more than 3 times higher than to BSA (background) were considered positive. Positive clones were subjected to DNA sequence analysis.
The naïve EETI-II libraries described in Example 2A were cycled through rounds of selection against LRP6 E1E2 protein. Twenty-two unique clones were identified which bound LRP6 E1E2 (Table 46). These initial hits contained variations in amino acid content within loops 1 and 5. […] The newly evolved variants recapitulated a motif which occurs in natural ligands.

[4] = test system: mouse or rat VEGF-A; details: cited from earlier work

9.54-28: C-terminal two-residue extension variant based on 9.54 (Table 39) (GCNIMLPFWGCKQDFDCLAGCICQYYQSCGFH)
improvement of binding affinity for hVEGF-A (8-109) compared to parent clone [1]: approximately 10 fold

CCCC[C@@H]1NC(=O)[C@H]([C@@H](C)CC)NC(=O)[C@H](CC(N)=O)NC(=O)[C@@H](NC(=O)CN)CSSC[C@@H](C(=O)N[C@H](C(=O)N[C@H]2CSSC[C@@H](C(=O)NCC(=O)O)NC(=O)[C@H](CO)NC(=O)[C@H](CCC(N)=O)NC(=O)[C@H](Cc3ccc(O)cc3)NC(=O)[C@H](Cc3ccc(O)cc3)NC(=O)[C@H](CCC(N)=O)NC2=O)C(C)C)NC(=O)CNC(=O)[C@H](C)NC(=O)[C@H](CC(C)C)NC(=O)[C@@H]2CSSC[C@H](NC(=O)CNC(=O)[C@H](Cc3c[nH]c4ccccc34)NC(=O)[C@H](Cc3ccccc3)NC(=O)[C@@H]3CCCN3C(=O)[C@H](CC(C)C)NC1=O)C(=O)NCC(=O)N[C@@H](CCCNC(=N)N)C(=O)N[C@@H](CC(=O)O)C(=O)N[C@@H](Cc1ccccc1)C(=O)N[C@@H](CCC(=O)O)C(=O)N2 [9.54.90.M5.Nle]
FOLD IMPROVEMENT RELATIVE TO VARIANT 9.54.90 ([2]; Table 38, from cellular IC50): 0.69

CC[C@H](C)[C@@H]1NC(=O)[C@H](CC(N)=O)NC(=O)[C@@H](NC(=O)CN)CSSC[C@@H](C(=O)N[C@H](C(=O)N[C@H]2CSSC[C@@H](C(=O)NCC(=O)O)NC(=O)[C@H](CO)NC(=O)[C@H](CCC(N)=O)NC(=O)[C@H](Cc3ccc(O)cc3)NC(=O)[C@H](Cc3ccc(O)cc3)NC(=O)[C@H](CCC(N)=O)NC2=O)C(C)C)NC(=O)CNC(=O)[C@H](C)NC(=O)[C@H](CC(C)C)NC(=O)[C@@H]2CSSC[C@H](NC(=O)CNC(=O)[C@H](Cc3cccc4ccccc34)NC(=O)[C@H](Cc3ccccc3)NC(=O)[C@@H]3CCCN3C(=O)[C@H](CC(C)C)NC(=O)[C@H](CCSC)NC1=O)C(=O)NCC(=O)N[C@@H](CCCNC(=N)N)C(=O)N[C@@H](CC(=O)O)C(=O)N[C@@H](Cc1ccccc1)C(=O)N[C@@H](CCC(=O)O)C(=O)N2 [9.54.90.Naph1] (H-GCNIMLPF[1Nal]GCGRDFECLAGCVCQYYQSCG-OH; disulfide 2-21, 11-17, 23-29; N-terminus and C-terminus assumed)
FOLD IMPROVEMENT RELATIVE TO VARIANT 9.54.90 ([2]; Table 38, from cellular IC50): 0.24

CC[C@H](C)[C@@H]1NC(=O)[C@H](CC(N)=O)NC(=O)[C@@H](NC(=O)CN)CSSC[C@@H](C(=O)N[C@H](C(=O)N[C@H]2CSSC[C@@H](C(=O)NCC(=O)O)NC(=O)[C@H](CO)NC(=O)[C@H](CCC(N)=O)NC(=O)[C@H](Cc3ccc(O)cc3)NC(=O)[C@H](Cc3ccc(O)cc3)NC(=O)[C@H](CCC(N)=O)NC2=O)C(C)C)NC(=O)CNC(=O)[C@H](C)NC(=O)[C@H](CC(C)C)NC(=O)[C@@H]2CSSC[C@H](NC(=O)CNC(=O)[C@H](Cc3ccc4ccccc4c3)NC(=O)[C@H](Cc3ccccc3)NC(=O)[C@@H]3CCCN3C(=O)[C@H](CC(C)C)NC(=O)[C@H](CCSC)NC1=O)C(=O)NCC(=O)N[C@@H](CCCNC(=N)N)C(=O)N[C@@H](CC(=O)O)C(=O)N[C@@H](Cc1ccccc1)C(=O)N[C@@H](CCC(=O)O)C(=O)N2 [9.54.90.Naph2] (H-GCNIMLPF[2Nal]GCGRDFECLAGCVCQYYQSCG-OH; disulfide 2-21, 11-17, 23-29; N-terminus and C-terminus assumed)
FOLD IMPROVEMENT RELATIVE TO VARIANT 9.54.90 ([2]; Table 38, from cellular IC50): 0.08

CC[C@H](C)[C@H](NC(=O)[C@@H]1CSSC[C@H](NC(=O)CN)C(=O)N[C@@H](CC(=O)O)C(=O)N[C@@H](C(C)C)C(=O)N[C@@H](CCSC)C(=O)N[C@@H](CCC(N)=O)C(=O)N2CCC[C@H]2C(=O)N[C@@H](Cc2ccc(O)cc2)C(=O)N[C@@H](Cc2c[nH]c3ccccc23)C(=O)NCC(=O)N[C@H]2CSSC[C@H](NC(=O)[C@H](CC(=O)O)NC(=O)[C@H]([C@@H](C)CC)NC(=O)[C@H](CC(=O)O)NC(=O)[C@@H]3CCCN3C(=O)CNC2=O)C(=O)N[C@@H](CC(C)C)C(=O)N[C@@H](CO)C(=O)N[C@@H](CC(N)=O)C(=O)N1)C(=O)N[C@H]1CSSC[C@@H](C(=O)NCC(=O)O)NC(=O)[C@H](CO)NC(=O)[C@H](CC(N)=O)NC(=O)[C@H](Cc2ccc(O)cc2)NC(=O)[C@H](Cc2c[nH]c3ccccc23)NC(=O)[C@H](Cc2c[nH]cn2)NC1=O [9.63.12.12] (H-GCDVMQPYWGCGPDIDCLSNCICHWYNSCG-OH; disulfide 2-21, 11-17, 23-29; N-terminus and C-terminus assumed)
FOLD IMPROVEMENT RELATIVE TO VARIANT 9.54.90 ([2]; Table 36, from cellular IC50): 2.41

CNIMLPYWGCGRDFECLAGCVCQYYQSC [VEGF_CKP9.54.90 F7Y A2G]
cellular potency relative to VEGF_CKP9.54.90 ([2]; Table 38): slight reduction of cellular potency

GCNIMLPFWGCGQSFECLAGCICQYYQSCGGS [9.54.1-63]
improvement of binding affinity for hVEGF-A (8-109) compared to parent clone [1]: approximately 10 fold

GCNIMLPFWGCGQSFECLAGCICQYYQSCGIA [9.54.1-2]
improvement of binding affinity for hVEGF-A (8-109) compared to parent clone [1]: approximately 10 fold

GCNIMLPFWGCGQSFECLAGCICQYYQSCGLS [9.54.1-42]
improvement of binding affinity for hVEGF-A (8-109) compared to parent clone [1]: approximately 10 fold

GCNIMLPFWGCGQSFECLAGCICQYYQSCGTR [9.54.1-36]
improvement of binding affinity for hVEGF-A (8-109) compared to parent clone [1]: approximately 10 fold

GCNIMLPFWGCGQSFECLAGCICQYYQSCGVH [9.54.1-90]
improvement of binding affinity for hVEGF-A (8-109) compared to parent clone [1]: approximately 10 fold

LRP6_CKP6 (GCRNSIKRCKQNSDCLAGCVCSVGHGCG)
S/N (signal to noise ratio as compared to BSA control) ([3]; LRP6 E1E2 vs BSA control): 37.36
ELISA ([3]; binding signal against LRP6 E1E2): 3.10

bevacizumab
binding to mouse or rat VEGF-A [4]: do not bind

ranibizumab
binding to mouse or rat VEGF-A [4]: do not bind
